Laboratory results: the supplement of paper PMC11908140

B1: library; numbered along this chain (parent)
chain: MRKPRAAVGSGHRKQAASQEGRQKHAKNNSQAKPSACDGLARQPEEVVLQASVSSYHLFRDVAEVTAFRGSLLSWYDQEKRDLPWRRRAEDEMDLDRRAYAVWVSEVMLQQTQVATVINYYTGWMQKWPTLQDLASASLEEVNQLWAGLGYYSRGRRLQEGARKVVEELGGHMPRTAETLQQLLPGVGRYTAGAIASIAFGQATGVVDGNVARVLCRVRAIGADPSSTLVSQQLWGLAQQLVDPARPGDFNQAAMELGATVCTPQRPLCSQCPVESLCRARQRVEQEQLLASGSLSGSPDVEECAPNTGQCHLCLPPSEPWDQTLGVVNFPRKASRKPPREESSATCVLEQPGALGAQILLVQRPNSGLLAGLWEFPSVTWEPSEQLQRKALLQELQRWAGPLPATHLRHLGEVVHTFSHIKLTYQVYGLALEGQTPVTTVPPGARWLTQEEFHTAAVSTAMKKVFRVYQGQQPGTCMGSKRSQVSSPCSRKKPRMGQQVLDNFFRSHISTDAHSLNSAAQ

Variants of: B1
Experiment: 8OG:A repair function score (normalized; synonymous = 0, nonsense = -1) (normalized log-likelihood score); higher = more repair activity (WT-like)
Details: with 8OG:A DNA repair reporter (GFP) in HEK-293 MUTYH KO cells
Protocol: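 Saturation mutagenesis (NNN codon scan) of the MUTYH cDNA (521-aa nuclear isoform NM_001048174.1 / NP_001041639), stably expressed under doxycycline induction in HEK-293 MUTYH knockout cells. Cells were co-transfected with an 8OG:A-bearing GFP repair reporter plus mCherry and sorted 72 h later into GFP+ and GFP− bins, three replicates per tile. The Rosace log2 enrichment (GFP+ vs GFP−) was converted per tile to a normalized function score with synonymous variants centered at 0 and nonsense variants (codons 1-471) at -1; low-abundance variants were removed.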

8OG:A repair function score: each site, then its substitutions
Q111: H -0.591 | C -0.764 | I -1.18 | G -0.557 | K -0.553 | M -1.12 | N -0.242 | W -0.869 | Y -1.17 | R -0.248 | L -0.931 | T -0.764 | S -0.201 | P -1.13 | A -0.258 | V -0.38 | E -1.24 | D -0.941 | F -1.08
Y121: G -1.09 | T -1.25 | I -0.562 | H -0.853 | M -0.933 | V -0.91 | W -0.427 | A -0.942 | D -0.798 | C -1.17 | P -1.26 | R -0.993 | N -3.31 | Q -0.765 | L -0.993 | K -1.13 | S -0.866 | E -1.92 | F -0.109
T112: V -0.914 | Y -1.19 | P -1.38 | W -1.35 | D -1.3 | S -0.314 | C -0.907 | K -1.01 | Q -0.591 | R -0.922 | H -0.634 | G -0.908 | I -1.18 | L -1.42 | M -1.06 | N -0.879 | E -0.925 | A -1.03 | F -1.17
T116: D -1.03 | G -0.179 | A -0.122 | K 0.113 | V -0.0225 | R 0.0298 | W -0.0903 | I -0.262 | Y -0.0318 | E -0.305 | M -0.441 | H 0.0217 | F -0.000589 | C -0.0685 | N -0.15 | L 0.023 | Q -0.21 | P -0.326 | S -0.0572
V107: N -0.735 | L -0.266 | S -0.135 | A 0.0286 | K -0.731 | Y -0.533 | R -0.87 | F -0.314 | M 0.0622 | C -0.0803 | P -1.01 | H -0.608 | E -0.669 | W -0.894 | D -1.44 | Q -0.746 | T -0.0133 | G -0.0408 | I 0.0887
I118: E -0.0341 | V 0.00363 | N -0.0549 | T -0.0724 | G -0.107 | M -0.277 | R 0.0138 | S -0.0993 | F -0.3 | L -0.0284 | D -0.182 | C 0.0146 | W -0.13 | Y -0.223 | Q -0.0947 | K -0.483 | A -0.0372 | H 0.000662 | P -0.112
L109: R -1.05 | P -1 | K -0.951 | G -0.659 | C -0.0119 | S -0.213 | Q -0.022 | T -0.266 | W -0.957 | A 0.00548 | Y -1.24 | E -1.07 | D -1.16 | F -0.916 | I -1.04 | V -0.838 | M -0.105 | H -0.619 | N -0.45
E106: I -1.13 | T -1.01 | N -1.72 | L -1.25 | P -1.62 | K -1.45 | H -1.74 | D -0.903 | A -0.944 | G -1.3 | M -0.994 | S -1.21 | Q -1.51 | W -1.04 | R -1.42 | Y -1.24 | C -1.19 | V -1.33 | F -0.995
G123: V 0.0959 | D -0.257 | E -0.000943 | S 0.0793 | L 0.0662 | F -0.0297 | W -0.322 | T 0.0116 | N -0.0109 | I 0.0985 | Q 0.213 | A 0.0469 | P 0.0736 | R 0.0952 | K 0.00116 | M -0.101 | C 0.124 | H -0.0466
Y120: F -0.0973 | D -0.428 | L -0.231 | N -0.333 | R -0.0662 | E -0.482 | G -0.347 | P -0.134 | K 0.0493 | A -0.24 | W -0.465 | H -0.238 | T 0.0371 | V -0.224 | C -0.227 | I -0.425 | S -0.126 | Q -0.154 | M -0.0214
A115: M -0.164 | I -0.0495 | E 0.0471 | D -0.0868 | Q -0.0206 | F -0.146 | C -0.0964 | R 0.092 | T -0.106 | V 0.00984 | N 0.178 | W -0.182 | H 0.0405 | Y -0.206 | G -0.0228 | P -0.0424 | K -0.0104 | L -0.0647 | S -0.0518
Q113: P -0.116 | G -0.109 | K -0.158 | L -0.239 | D -0.327 | H -0.405 | Y 0.0661 | M -0.593 | E -0.529 | I -0.279 | N -0.167 | R 0.032 | F -0.237 | S -0.0696 | T 0.157 | V -0.43 | A -0.108 | C -0.133 | W -0.172
V117: R -1.16 | L -0.727 | P -1.02 | A 0.0474 | W -0.737 | K -1.84 | Y -1.28 | G -0.408 | T 0.0387 | M -0.226 | D -1 | F -1.21 | I -0.166 | E -0.683 | H -1.24 | N -1.21 | S -0.427 | C 0.0468 | Q -1.26
N119: R 0.0743 | H 0.126 | T -0.0798 | I -0.263 | F -0.259 | G 0.0963 | E -0.069 | W -0.704 | A 0.121 | C -0.0452 | L -0.112 | D -0.419 | P -0.0904 | K -0.0285 | M -0.216 | S -0.294 | Y -0.361 | V 0.0134 | Q -0.00304
M108: D -0.793 | F -0.641 | W -1.11 | A -1.06 | T -0.981 | Q -0.453 | P -1.2 | S -1.28 | R -1.2 | E -0.887 | I -0.761 | L -0.662 | H -1.36 | N -1.18 | G -1.18 | C -0.99 | K -1.01 | V -1.11 | Y -0.819
S105: Y -1.24 | W -0.677
V114: T -0.141 | A 0.0344 | M -1.07 | I -0.181 | Y -0.241 | K -0.435 | F -0.42 | C -0.178 | D -0.453 | S -0.184 | H -0.935 | G -0.449 | R -0.297 | N -0.367 | L -0.441 | P -1.09 | Q -0.313 | E -0.932 | W -0.527
Q110: L -0.353 | R -0.82 | P -0.29 | C -0.75 | V 0.0461 | F -1.24 | S -1.26 | H -0.0864 | G 0.0252 | A -2.51
T122: M -0.388 | E -0.0848 | I 0.0511 | G -0.143 | L -0.0652 | V -0.0114 | F -0.0723 | K -0.158 | Q 0.0683 | C -0.0157 | A -0.000881 | P 0.0277 | W -0.16 | R -0.0157 | H 0.0576 | Y -0.13 | N 0.119 | D 0.0468 | S -0.0596
